We go through 38 molecules from patent US20140179896A1 (published 2014).

Changes are numbered by the printed parent chain.

The labels stand for the following.
B1: 1′DelH9 PR4 (designed binder)
chain: EVVAATPTSLLISWRHPHFPTRYYRITYGETGGNSPVQEFTVPLQPPTATISGLKPGVDYTITGYAVTVGQNDHELITPISINYRT
notes: tag left out
B2: 3′D4 PR4 (designed binder)
chain: B1 chain with V69L, G70A, Q71H, H74R
notes: tag left out
B3: 3H9 PR3 (designed binder)
chain: B1 chain with G70S, N72Q, D73N, I77L
notes: tag left out
B4: 3F1 PR3 (designed binder)
chain: B1 chain with V69L, G70T, Q71H, D73E, H74Q, E75Y, I77F
notes: tag left out
B5: 4C4 PR3 (designed binder)
chain: B1 chain with G70A, N72D, I77F
notes: tag left out
B6: 4B6 PR3 (designed binder)
chain: B1 chain with I77F
notes: tag left out
B7: 3G5 PR3 (designed binder)
chain: B1 chain with V69L, Q71E, H74R, E75K
notes: tag left out
B8: 3D11 PR3 (designed binder)
chain: B1 chain with V69L, N72E, D73N, H74Q
notes: tag left out
B9: 2′DelB9 PR4 (designed binder)
chain: B1 chain with Q71P, N72T, I77L
notes: tag left out
B10: 3′E8 PR4 (designed binder)
chain: B1 chain with G70A, H74R, E75Q, I77F
notes: tag left out
B11: 3F5 PR3 (designed binder)
chain: B1 chain with G70A, Q71Y, D73E, I77Y
notes: tag left out
B12: 4′G8 PR4 (designed binder)
chain: B1 chain with G70A, D73G, I77L
notes: tag left out
B13: 3D4 PR3 (designed binder)
chain: B1 chain with Q71W
notes: tag left out
B14: 3E6 PR3 (designed binder)
chain: B1 chain with G70P, D73G, P79M
notes: tag left out
B15: 2′DelB10 PR4 (designed binder)
chain: B1 chain with G70T, Q71H, I77L
notes: tag left out
B16: 2′DelB11 PR4 (designed binder)
chain: B1 chain with I77M
notes: tag left out
B17: 4F12 PR3 (designed binder)
chain: B1 chain with G70T, D73G
notes: tag left out
B18: 3′E6 PR4 (designed binder)
chain: B1 chain with V69F, D73G, H74K, L76F, I77R, T78I
notes: tag left out
B19: 3′E4 PR4 (designed binder)
chain: B1 chain with Q71P, H74R, T78V
notes: tag left out
B20: 3′A3 PR4 (designed binder)
chain: B1 chain with V69R, G70A
notes: tag left out
B21: 3A8 PR3 (designed binder)
chain: B1 chain with V69E, G70A, Q71H, N72H, D73G, I77M, T78I
notes: tag left out
B22: 3′D12 PR4 (designed binder)
chain: B1 chain with V69G, G70E, H74Y, I77L, T78V
notes: tag left out
B23: 4A2 PR3 (designed binder)
chain: B1 chain with G70A, D73A, I77M
notes: tag left out
B24: 3F11 PR3 (designed binder)
chain: B1 chain with Q71L, N72T, E75V, I77L
notes: tag left out
B25: 4G4 PR3 (designed binder)
chain: B1 chain with V69L, I77L
notes: tag left out
B26: 4C11 PR3 (designed binder)
chain: B1 chain with V69M, G70A, H74R
notes: tag left out
B27: 3C5 PR3 (designed binder)
chain: B1 chain with V69G, G70D, Q71H, H74R, I77M
notes: tag left out
B28: 2′DelH2 PR4 (designed binder)
chain: B1 chain with G70S, N72Y, D73G
notes: tag left out
B29: 3G10 PR3 (designed binder)
chain: B1 chain with G70V, Q71H, D73G, L76I, I77L
notes: tag left out
B30: 2′Del F12 PR4 (designed binder)
chain: B1 chain with V69L, G70T, N72H, I77L
notes: tag left out
B31: 4D2 PR3 (designed binder)
chain: B1 chain with G70A, D73N
notes: tag left out
B32: 2′Del E12 PR4 (designed binder)
chain: B1 chain with V69E, Q71P, D73G
notes: tag left out
B33: 4A3 PR3 (designed binder)
chain: B1 chain with G70A, N72D, D73E
notes: tag left out
B34: 3F4 PR3 (designed binder)
chain: B1 chain with V69M, Q71Y, N72E
notes: tag left out
B35: 3G1 PR3 (designed binder)
chain: B1 chain with V69M, G70A, D73V, H74R, I77L
notes: tag left out
B36: 4′B6 PR4 (designed binder)
chain: B1 chain with V69L, G70A
notes: tag left out
B37: 3′F7 PR4 (designed binder)
chain: B1 chain with V69E, D73G, H74S, T78V
notes: tag left out
B38: 4B7 PR3 (designed binder)
chain: B1 chain with G70T, I77F
notes: tag left out

The target in the test is T1, human vascular endothelial growth factor receptor-2 Fc chimera (KDR-Fc) (human, UniProt P35968 20-764).
T1 construct: range 1-764; purchased from R&D Systems; also called hKDR; human VEGF-R2-Fc; not shown: human IgG1 Fc
T1 sequence (P35968 20-764 limits assumed, change not shown, form in doubt): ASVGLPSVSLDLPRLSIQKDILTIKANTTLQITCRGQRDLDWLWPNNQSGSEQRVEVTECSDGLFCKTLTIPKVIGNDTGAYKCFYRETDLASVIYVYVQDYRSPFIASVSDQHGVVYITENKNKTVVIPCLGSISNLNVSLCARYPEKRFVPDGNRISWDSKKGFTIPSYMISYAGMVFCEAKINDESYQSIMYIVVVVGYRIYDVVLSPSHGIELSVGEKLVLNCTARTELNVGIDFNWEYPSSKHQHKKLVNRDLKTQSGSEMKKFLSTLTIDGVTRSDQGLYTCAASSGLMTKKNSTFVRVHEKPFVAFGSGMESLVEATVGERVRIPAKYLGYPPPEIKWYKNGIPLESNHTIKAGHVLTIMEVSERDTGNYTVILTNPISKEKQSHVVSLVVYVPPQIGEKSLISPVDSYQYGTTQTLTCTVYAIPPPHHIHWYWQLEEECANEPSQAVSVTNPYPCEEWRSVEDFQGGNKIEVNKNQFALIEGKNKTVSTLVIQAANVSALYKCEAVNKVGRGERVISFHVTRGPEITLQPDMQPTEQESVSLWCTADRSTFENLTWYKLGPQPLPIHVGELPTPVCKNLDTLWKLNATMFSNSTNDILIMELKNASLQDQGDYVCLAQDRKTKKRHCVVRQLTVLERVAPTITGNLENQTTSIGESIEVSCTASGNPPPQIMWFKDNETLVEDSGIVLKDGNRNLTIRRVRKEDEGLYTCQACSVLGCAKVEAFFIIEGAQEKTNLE
As to the kind of experiment: radioactive equilibrium binding, 1 nM KDR-Fc. Put shortly:
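³⁵S-Met-labeled binder protein, made by reticulocyte-lysate translation and Flag-purified, held at 0.2 or 0.5 nM with receptor-Fc (0–200 nM) for 1 h at 30° C in buffer B. Complexes captured on Protein A beads, washed, KOH-eluted. Bound signal given as % of input radioactivity minus bead-only background; one-site fit.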
Turning to B1, the “Binding to 1 nM KDR, %” value was found to be 10%.
With B2, the “Binding to 1 nM KDR, %” value amounted to 12%.
B3: the “Binding to 1 nM KDR, %” value came out at 11%.
The same measure for B4: 9%; for B5: 10%; for B6: 14%.
The same measure for B7: 13%; for B8: 10%.
In the case of B9 it was 11%.
Take B10: the “Binding to 1 nM KDR, %” value is 12%.
Turning to B11, the “Binding to 1 nM KDR, %” value was 11%.
The same measure for B12: 13%; for B13: 10%.
The same measure for B14: 12%; for B15: 11%.
In the case of B16 it was 11%.
Turning to B17, the “Binding to 1 nM KDR, %” value is 13%.
In the case of B18 it was 5%; in that of B19, 12%; in that of B20, 9%.
The same measure for B21: 12%; for B22: 7%; for B23: 8%.
The same measure for B24: 10%; for B25: 8%.
Consider B26, for which the “Binding to 1 nM KDR, %” value stood at 14%.
The same measure for B27: 12%.
In the case of B28 it was 8%; in that of B29, 10%.
B30: the “Binding to 1 nM KDR, %” value stood at 7%.
The same measure for B31: 8%; for B32: 13%; for B33: 6%.
The same measure for B34: 10%.
In the case of B35 it was 13%; in that of B36, 11%; in that of B37, 14%.
In the case of B38, the “Binding to 1 nM KDR, %” value turned out to be 13%.
